{"source": "patent US20140234868A1", "about": "“USE FOR GLYCOLIPOPROTEIN GINTONIN, ISOLATED AND IDENTIFIED FROM GINSENG, AS A NATURAL MEDICAL-PLANT DERIVED LIGAND” (KONKUK UNIVERSITY INDUSTRIAL COOPERATION CORP., priority 2011, published 2014)", "molecules": {"B1": {"name": "gintonin: ginseng-derived glycolipoprotein; structural protein of ginseng major latex-like protein (MLP151) and ribonuclease-like storage proteins; crude gintonin used in tests (protein)", "chain 1": "MGLTGKLICQTGIKSDGDVFHELFGTRPHHVPNITPANIQGCDLHEGEFGKVGSVVIWNYSIDGNAMIAKEEIVAIDEEDKSVTFKVVEGHLFEEFKSIVFSVHVDTKGEDNLVTWSIDYEKLNESVKDPTSYLDFLLSVTRDIEAHHLPK", "chain 2": "RSDYPWAMFALRLQWPAGFCEVNNACDTKSLLNTFTIHGLYPYNAKGTPALYCDGTAFDVNSVSDFLAEMHLAWPSHETNTEDIQFWEHEWKKHGRCSEALLKQTDYFRTALAFRKAFDIVGLLNQEGIYPNNDLYRPKMIKEAIKKHLNAVPEIDFTKNENSEYVLTDINVCVNQQATRFVDCPTDDATDDYRLKFVRLPSKMKFADPRTNSII"}}, "key": {"[1]": {"target": "T1, mutant R3.28A LPA3 receptor (Homo sapiens, UniProt Q9UBY5, R105A)", "T1 construct": "expressed in transfected cells; host or cells: B103 rat neuroblastoma cells", "T1 sequence (Q9UBY5 1-353 R105A)": "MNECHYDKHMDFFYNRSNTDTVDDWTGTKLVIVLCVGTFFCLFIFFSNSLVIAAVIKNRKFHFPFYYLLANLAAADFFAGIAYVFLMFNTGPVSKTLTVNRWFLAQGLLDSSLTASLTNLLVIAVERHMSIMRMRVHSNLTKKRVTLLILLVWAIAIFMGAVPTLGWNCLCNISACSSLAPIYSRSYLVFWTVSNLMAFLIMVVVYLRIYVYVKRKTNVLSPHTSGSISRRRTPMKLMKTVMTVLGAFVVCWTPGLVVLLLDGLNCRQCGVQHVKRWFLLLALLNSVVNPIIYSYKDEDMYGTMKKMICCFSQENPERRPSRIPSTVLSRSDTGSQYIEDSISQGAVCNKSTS", "experiment": "Intracellular Ca2+ in B103 cells with mutant R3.28A LPA3 receptor", "assay_type": "cell-based", "details": "R3.28A LPA3 receptor-transfected B103 cells", "source_text": "That is, LPA receptors have specific amino acid residues, known as binding sites, which are responsible for interaction with LPA, and the binding of LPA to the specific amino acids starts to exert the function. This Example was configured to examine a change in the gintonin-induced intracellular calcium increase through LPA receptor activation in LPA3 receptor-expressing cells when specific amino acids of the LPA binding site in LPA receptors were mutated.\nTo this end, a mutant LPA receptor in which Arg3.28, known as a common LPA binding site of LPA1-LPA3 receptors, was mutated as Arg3.28Ala (that is, Arg is substituted by Ala; R3.28A) or Trp4.64, known as an LPA-binding site of LPA3 receptor was mutated as Trp4.64Ala (that is, Tip is substituted by Ala; W4.64A) (Valentine et al., J. Biol. Chem. 283, 12175-12187, 2008) was transfected to B103 cells which were then tested for the action of gintonin, in comparison with cells transfected with the wild-type. […] From the result, it is henceforth understood that the gintonin-triggered LPA receptor activation is achieved by interaction with the LPA binding sites of LPA receptors and that gintonin occupies the LPA binding sites to activate LPA receptors."}, "LPA2 receptor": {"target": "LPA2 receptor (Homo sapiens, UniProt Q9HBW0)", "sequence (Q9HBW0 whole entry)": "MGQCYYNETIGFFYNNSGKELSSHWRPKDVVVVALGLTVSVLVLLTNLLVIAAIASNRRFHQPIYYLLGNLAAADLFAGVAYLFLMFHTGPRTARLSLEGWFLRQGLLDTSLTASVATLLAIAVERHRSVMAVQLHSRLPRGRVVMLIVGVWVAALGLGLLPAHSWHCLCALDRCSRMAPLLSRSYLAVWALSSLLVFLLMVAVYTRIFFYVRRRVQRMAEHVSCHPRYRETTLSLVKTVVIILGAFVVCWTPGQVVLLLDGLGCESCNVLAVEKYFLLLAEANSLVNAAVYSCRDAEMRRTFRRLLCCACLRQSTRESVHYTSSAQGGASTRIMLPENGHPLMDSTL", "experiment": "Intracellular free Ca2+ (Fura-2AM) in LPA2-expressing B103 cells", "assay_type": "cell-based", "set-up": "host or cells: B103 rat neuroblastoma cells", "source_text": "LPA family receptors are endogenous to cells of most organs. B103 rat neuroblastoma cells, known as LPA receptor-null cells (Valentine et al., Biochim Biophys Acta 1780. 597-605) were transiently transfected with a plasmid (vector) carrying one of genes coding for LPA1(edg-2), LPA2(edg-4), LPA3(edg-7), LPA4, LPA5 and LPA6 receptors or a plasmid carrying none of them (empty vector). Two or three days after transfection, the cells are suspended, and made permeable. Then, the permeable cells are treated with Fura-2AM, a fluorescent dye binding to calcium, and then with gintonin, followed by spectrofluorephotometry to examine whether gintonin induces an increase in intracellular free Ca^2+ level.\n(1) preparing large quantities of plasmids carrying respective LPA family receptor genes and an empty plasmid carrying none of them through amplification and purification (maxi-preparation); (2) verifying the expression of LPA receptors wherein B103 cells are transfected with haematoglutin (HA)-tagged LPA receptors, and then subjected to Western blotting analysis using an anti-HA primary antibody and a horseradish peroxidase (HRP)-conjugated secondary antibody to develop a color; (3) verifying the expression of LPA receptors wherein B1-3 cells are transfected with haematoglutin (HA)-tagged LPA receptors, and then subjected to confocal laser microscopy using an anti-HA antibody and a fluorescence dye Cy3-conjugated secondary antibody; (4) transfecting the empty plasmid and each of the plasmids carrying LPA family receptor genes into B103 cells; (5) treating the transfected B103 cells with trypsin (0.05% trypsin with EDTA, w/v) 2-3 days post-transfection, to give a cell suspension; (6) culturing the suspended B103 cells with Fura-2AM (2.5 μM); and (7) treating the suspended B103 cells with gintonin and quantifying a change in intracellular free Ca^2+ level in a cuvette by spectrofluorephotometry using Fura-2AM.\nHuman LPA (lysophosphatidic acid) receptor subtypes, orphan GPCRs (G protein coupled receptors) and plasmids carrying GPCRs were purchased from Missouri S&T resource Center (www.cDNA.org).\nThe transient transfection of LPA receptor subtypes was carried out with the aid of Lipofectamine 2000 of Invitrogen. A plasmid (10.8 μg) carrying each LPA receptor (LPA1, LPA2, LPA3, LPA4, LPA5, and LPA6) was transfected into B103 cells grown in 10-cm dishes, and incubated for 2 days prior for use in experiments.\nIn this Example, gintonin, or ginsenoside Rb1 or Rg1 was examined for its ability to induce a transient increase of [Ca^2+]i in Fura-2AM-loaded B103 cells which were transfected with LPA receptors and in Fura-2AM-loaded B103 cells which were not transfected with LPA receptors. […]"}}, "data": [{"molecule": "B1", "values": [{"measurement": "gintonin-induced intracellular calcium increase vs wild-type", "setting": "[1]", "value": "greatly reduced"}, {"measurement": "EC50", "setting": "LPA2 receptor; LPA2 receptor, B103 cells, read-out: EC50, LPA receptor-mediated intracellular calcium increase", "value": "4 ± 0.4", "unit": "pM"}, {"measurement": "increase in intracellular calcium level", "setting": "LPA2 receptor; gintonin 1 μg/ml, LPA2-expressing B103 cells", "value": "208.3 ± 13.0", "unit": "µM"}]}]}
